Assay results taken from patent publication US20190322747A1 (ZHEJIANG TERUISI PHARMACEUTICAL, published 2019).

Columns and labels:
Assay in all cases: ELISA, antigen coated at 5 µg/mL, anti-HA detection, absorbance at 405 nm
[1] = target: CD28 (human) antigen protein, coated (human, UniProt P10747 19-152)
Procedure: (§1) (2) The antigen proteins PD-1 (human), PD-1 (monkey), PD-1 (mice), ICOS(human), CTLA-4 (human), CD28 (human), IgG1 (human) were coated overnight at 4° C. with 0.5 μg per well (5 μg/mL, 100 μL), and IgG1 was coated as a control.
(§2) (3) The plates were washed by PBST (×5) next day, and 200 μL 1% BSA was added to block in RT for 2 hours;

[2] = target: T1, PD-1 (mice) antigen protein, coated (mouse, UniProt Q02242 25-167, limits assumed)
T1 construct: also called mouse PD-1
T1 sequence (looked up): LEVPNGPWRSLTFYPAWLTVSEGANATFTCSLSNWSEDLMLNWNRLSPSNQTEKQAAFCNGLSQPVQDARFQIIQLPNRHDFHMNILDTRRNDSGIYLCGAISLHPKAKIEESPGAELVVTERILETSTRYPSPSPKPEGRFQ
Procedure: as §1, §2

[3] = target: T2, ICOS (human) antigen protein, coated (human, UniProt Q9Y6W8 21-140, limits assumed)
T2 sequence (looked up): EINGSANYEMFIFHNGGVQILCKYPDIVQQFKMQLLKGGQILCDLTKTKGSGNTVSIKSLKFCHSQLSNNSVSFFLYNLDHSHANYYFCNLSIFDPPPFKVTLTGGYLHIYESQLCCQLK
Procedure: as §1, §2

[4] = target: T3, CTLA-4 (human) antigen protein, coated (human, UniProt P16410 36-161, limits assumed)
T3 sequence (looked up): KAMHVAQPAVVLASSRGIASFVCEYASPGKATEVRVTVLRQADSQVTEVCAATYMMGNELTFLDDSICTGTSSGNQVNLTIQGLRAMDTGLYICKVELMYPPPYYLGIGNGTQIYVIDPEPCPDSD
Procedure: as §1, §2

CD28 (human) antigen protein, coated, sequence (P10747 19-152 limits assumed): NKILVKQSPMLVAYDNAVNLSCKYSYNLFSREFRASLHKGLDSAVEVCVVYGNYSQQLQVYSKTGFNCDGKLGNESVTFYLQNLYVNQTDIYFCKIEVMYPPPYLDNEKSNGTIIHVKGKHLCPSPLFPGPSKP

binding result [1]: no binding (tested: 10 µg/mL) | binding result [2]: no binding (tested: 10 µg/mL) | binding result [3]: no binding (tested: 10 µg/mL) | binding result [4]: no binding (tested: 10 µg/mL)
B1: humanized PD-1 nanobody (amino acid sequence SEQ ID NO.: 14) (VHH)
VHH: QVQLQESGGGLVQPGGSLRLSCAASGSTYLRFSMGWFRQVPGKGLEGVAAIGGDGRTSYADSVKGRFTISKDNSKNTLYLDMNSLRAEDTAVYYCAAAVLLDGSFSLLAPLVPYKYDYWGQGTLVTVSS
modifications: biotinylated (Example 9, sites not stated)
notes: also called Nanobody after humanization; humanized nanobody; not shown: HA and His tags from the pMECS vector
